This note sets out measurements from article PMC3045209.

For the test, the target named is protein A (UniProt P38507). As to the kind of experiment: SPR. (SPR reads the build-up and loss of mass on a sensor chip optically.)

In the case of rabbit IgG (antibody), the SPR angle increase turned out to be 2.1 °.
